Test results published in patent US20230257716A1 (priority 2020, published 2023).

B1: WNT3A: exogenous WNT growth factor (R&D) (protein, UniProt P56704 19-352, looked up)
Protein Wnt-3a: SYPIWWSLAVGPQYSSLGSQPILCASIPGLVPKQLRFCRNYVEIMPSVAEGIKIGIQECQHQFRGRRWNCTTVHDSLAIFGPVLDKATRESAFVHAIASAGVAFAVTRSCAEGTAAICGCSSRHQGSPGKGWKWGGCSEDIEFGGMVSREFADARENRPDARSAMNRHNNEAGRQAIASHMHLKCKCHGLSGSCEVKTCWWSQPDFRAIGDFLKDKYDSASEMVVEKHRESRGWVETLRPRYTYFKVPTERDLVYYEASPNFCEPNPETGSFGTRDRTCNVSSHGIDGCDLLCCGRGHNARAERRREKCRCVFHWCCYVSCQECTRVYDVHTCK
B2: R-SPONDIN1: exogenous growth factor R-spondin 1 (Peprotech) (protein, UniProt Q2MKA7 21-263, looked up)
R-spondin-1: SRGIKGKRQRRISAEGSQACAKGCELCSEVNGCLKCSPKLFILLERNDIRQVGVCLPSCPPGYFDARNPDMNKCIKCKIEHCEACFSHNFCTKCKEGLYLHKGRCYPACPEGSSAANGTMECSSPAQCEMSEWSPWGPCSKKQQLCGFRRGSEERTRRVLHAPVGDHAACSDTKETRRCTVRRVPCPEGQKRRKGGQGRRENANRNLARKESKEAGAGSRRRKGQQQQQQQGTVGPLTSAGPA
B3: NOGGIN: recombinant human NOGGIN, BMP antagonist (protein, UniProt Q13253 28-232, looked up)
Noggin: QHYLHIRPAPSDNLPLVDLIEHPDPIFDPKEKDLNETLLRSLLGGHYDPGFMATSPPEDRPGGGGGAAGGAEDLAELDQLLRQRPSGAMPSEIKGLEFSEGLAQGKKQRLSKKLRRKLQMWLWSQTFCPVLYAWNDLGSRFWPRYVKVGSCFSKRSCSVPEGMVCKPSKSVHLTVLRWRCQRRGGQRCGWIPIQYPIISECKCSC

tested on: basal organoids; experiment: Growth factor evaluation for basal organoids after sedimentation and clonogenic culture; type: cell-based, human; details: pure basal cell cultures; EGF and Noggin together
Source text: (§1) Screening exogenous growth factors in organoid culture.
Density sedimentation of basal cells. Organoid cultures within 2-3 weeks of primary plating were dissociated with 1 U/ml neutral protease (Worthington, Cat LS02100) and 100 KU of DNase I in organoid media. Basal organoids were then collected by gravity sedimentation and the supernatant was either aspirated or collected for downstream use. Basal organoids were then further fractionated on a custom Ficoll-Paque gradient (4 vol Ficoll-Paque to 1 vol PBS) and centrifuged at 300×g for 10 minutes at room temperature. The supernatant was aspirated and the organoid pellet was resuspended in 10 ml PBS in a 15 ml conical tube, collected by gravity sedimentation, and plated into ECM as described above.

Molecule | basal organoid growth with exogenous growth factors
B1 | without additive effects
B2 | without additive effects
B3 | sufficient for maximal growth

tested on: human distal lung organoids; experiment: Screening exogenous growth factors in distal lung organoid culture; type: cell-based; details: single cell suspensions of distal lung, feeder-free; EGF and NOGGIN in combination
Source text: as §1

Molecule | distal lung organoid growth with exogenous growth factors
B1 | without any additional growth-promoting effects
B2 | without any additional growth-promoting effects
B3 | optimal

tested on: AT2 organoids; experiment: AT2 organoid proliferation with niche factors and PORCUPINE inhibitor; details: EGF and NOGGIN together; WNT-3A and RSPONDIN-1 added exogenously
Experimental: Screening exogenous growth factors in organoid culture. Distal airway cells were isolated and plated as above with the following exceptions: ADMEM/F12 was used instead of organoid medium during elastase digestion of lung tissue, cells were serially diluted and filtered through a 40 micron cell strainer and counted with a hemocytometer. 1000 viable epithelial cells (by Trypan blue exclusion, size, and morphology) per μL ECM were plated per 5 μL Matrigel droplet per well. Base media consisted of organoid media lacking A83-01, EGF, NOGGIN, WNT3A or RSPO1. EGF (final 50 ng/ml, R&D), NOGGIN (final 100 ng/ml, R&D), WNT3A (final 100 ng/ml, R&D), RSPO1 (final 500 ng/ml, Peprotech) or the PORCUPINE inhibitor C59 (final 1μM, Biogems) were added singly or in combination to base media. Images were obtained ten days after primary plating with an inverted light microscope at 5X magnification. Each condition was plated in quadruplicate and organoid formation was quantified using the analyze particle (threshold=4902 pixels) plugin in ImageJ as previously described.

Molecule | clonal AT2 organoid proliferation with exogenous growth factors
B1 | did not enhance growth
B2 | did not enhance growth
B3 | sufficient for clonal AT2 organoid proliferation
